Here are results for 68 molecules from patent US20200040057A1 (IMMATICS BIOTECHNOLOGIES, published 2020).

The first experiment addresses HLA-B*07 (human). The experiment in a line: UV peptide exchange ELISA; ++ = yield >20%.
MAGPAIHTAPM displayed a peptide exchange yield of 20 to 50%. The molecule SPAKQFNIY returned a peptide exchange yield of 20 to 50%.

For LPELPTTLTF, the peptide exchange yield was in the range of 20 to 50%.

RTKEEINEL gave a peptide exchange yield of 20 to 50%. Still for that read-out and setting: the same measure for MTLPATTLTL: 20 to 50%.

FVPPSGPSNPM returned a peptide exchange yield of 20 to 50%. YGPYGSGSGW displayed a peptide exchange yield of 20 to 50%. In turn, GAYDKARYL yielded a peptide exchange yield of 20 to 50%. The same measure, in the same setting: the figure for REPIMKADML is 20 to 50%.

Another experiment has as its target HLA-B*07 (human). Nature of the experiment: UV peptide exchange ELISA; +++ = yield >50.
SALPTTISF gave a peptide exchange yield of 50 to 75%.

Turning to MPMQDIKMILKM, the peptide exchange yield lay in the range of 50 to 75%. Same read-out and setting: the figure for RPRPPKVL is 50 to 75%; for APCNGNVAV it is 50 to 75%. Still for that read-out and setting: the same measure for RPQGAVGGL: 50 to 75%; for VPFVPRTSV: 50 to 75%. Same read-out and setting: the figure for SPFSKRIKL is 50 to 75%. Turning to APSMLRKNQL, the peptide exchange yield lay in the range of 50 to 75%. As to HPSQESPTL, the peptide exchange yield lay within 50 to 75%.

Molecule APVGGNVTSSF had a peptide exchange yield of 50 to 75%. On to VPSCGRSVEGL, for which the peptide exchange yield fell in the range of 50 to 75%. LPLRAVNLNL had a peptide exchange yield of 50 to 75%. For VPVSHPVLTL, the peptide exchange yield lay in the range of 50 to 75%.

On to KPMLPPAAF, for which the peptide exchange yield was 50 to 75%. The same measure, in the same setting: the same measure for SVLPRALSL: 50 to 75%; for RPGPSDPAA: 50 to 75%; for APRPRLLLL: 50 to 75%. Same read-out and setting: the same measure for APLPPPRAL: 50 to 75%; for KPQSTISGL: 50 to 75%. Same read-out and setting: the figure for SPDSAILKL is 50 to 75%.

Consider VPPQNPRPSL, for which the peptide exchange yield was in the range of 50 to 75%. Molecule KEDNPSGHTYTL came in with a peptide exchange yield of 50 to 75%. Still for that read-out and setting: the figure for FPHMATTAF is 50 to 75%. Same read-out and setting: the same measure for MPAVSGPGPLF: 50 to 75%; for KPRATWTLKL: 50 to 75%.

KPRATWTL yielded a peptide exchange yield of 50 to 75%. In turn, RPEDGRPRL gave a peptide exchange yield of 50 to 75%. Molecule GPASDHPSL returned a peptide exchange yield of 50 to 75%. The same measure, in the same setting: the figure for HVRPQTNCI is 50 to 75%.

In turn, MPATPSLKV had a peptide exchange yield of 50 to 75%. The molecule TRPWSGPYIL had a peptide exchange yield of 50 to 75%. On the same count and under the same terms, the same measure for VPAAPTKAL: 50 to 75%; for APFAPLHGGGSL: 50 to 75%. Molecule QPRPSSEKI had a peptide exchange yield of 50 to 75%.

The molecule RPFSREMDL had a peptide exchange yield of 50 to 75%. On the same count and under the same terms, the same measure for APRSPGQVTPRGL: 50 to 75%; for YPGFTKRL: 50 to 75%; for LPLGGLPLLI: 50 to 75%. Same read-out and setting: the same measure for RPRPPKVLGL: 50 to 75%; for QPISGNPVTL: 50 to 75%; for LPMSKRQEY: 50 to 75%.

As to SPARALLLALA, the peptide exchange yield lay in the range of 50 to 75%. YVVKPLHPF registered a peptide exchange yield of 50 to 75%.

APEKARAFL returned a peptide exchange yield of 50 to 75%. On the same count and under the same terms, the figure for KPAAAGVKKVA is 50 to 75%.

APMAPGRSP showed a peptide exchange yield of 50 to 75%. For MPMQDIKMI, the peptide exchange yield was in the range of 50 to 75%.

Turning to YPLQGPGLLSV, the peptide exchange yield was in the range of 50 to 75%. The same measure, in the same setting: the figure for GPQRTTSV is 50 to 75%. For RPRYSIGL, the peptide exchange yield is 50 to 75%. For the molecule PEKARAFL, the peptide exchange yield was 50 to 75%. Same read-out and setting: the same measure for SPYADIIPSA: 50 to 75%; for RPFLRLPSL: 50 to 75%; for RIRVTSEVL: 50 to 75%. Still for that read-out and setting: the same measure for APEPRAALL: 50 to 75%; for TSPLPPTV: 50 to 75%. In turn, SAAPPGASL showed a peptide exchange yield of 50 to 75%. The same measure, in the same setting: the same measure for LPPPRALTL: 50 to 75%; for HPAPPVTSA: 50 to 75%.
